What was measured:
[1] = molecular target: T1, Rhesus Macaque CD117 on CD34-enriched bone marrow hematopoietic stem cells (Rhesus Macaque, UniProt F6V858 26-976); experiment: flow cytometry on Rhesus Macaque CD34-enriched bone marrow cells gated on CD34+ CD117+, R-Phycoerythrin goat anti-human F(ab')2 detection
T1 construct: whole, on cells; also called CD117 of Rhesus Macaque; Rhesus Macaque CD117-positive hematopoietic stem cells

[2] = molecular target: T2, CD117 protein (SinoBiological, cat #11996-H08H) (UniProt P10721-2 26-516); experiment: ELISA on plate-coated CD117 protein, detection with anti-human IgG (Fc specific)-peroxidase, OD at 450 nm
T2 construct: Bought reagent

[3] = molecular target: T2, CD117 protein (SinoBiological, cat …); experiment: ELISA, CD117 protein coated
[4] = molecular target: T3, Human CD16a (V176) protein (NovoProtein, cat #C441) (human, UniProt P08637 17-208); experiment: BLI (Octet Red 96e), CD16a (V176) on HIS1K sensors, antibody in solution, 1:1 global fit
T3 construct: also called CD16a receptor
T3 sequence (P08637 17-208 F176V limits assumed): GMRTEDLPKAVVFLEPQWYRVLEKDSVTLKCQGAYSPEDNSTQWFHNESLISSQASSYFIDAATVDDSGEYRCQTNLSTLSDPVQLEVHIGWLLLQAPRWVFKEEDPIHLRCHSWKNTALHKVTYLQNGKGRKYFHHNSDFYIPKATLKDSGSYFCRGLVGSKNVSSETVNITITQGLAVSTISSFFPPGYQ

T2 sequence (P10721 other isoform, or with tags, fused parts or gaps H08H H08H limits assumed): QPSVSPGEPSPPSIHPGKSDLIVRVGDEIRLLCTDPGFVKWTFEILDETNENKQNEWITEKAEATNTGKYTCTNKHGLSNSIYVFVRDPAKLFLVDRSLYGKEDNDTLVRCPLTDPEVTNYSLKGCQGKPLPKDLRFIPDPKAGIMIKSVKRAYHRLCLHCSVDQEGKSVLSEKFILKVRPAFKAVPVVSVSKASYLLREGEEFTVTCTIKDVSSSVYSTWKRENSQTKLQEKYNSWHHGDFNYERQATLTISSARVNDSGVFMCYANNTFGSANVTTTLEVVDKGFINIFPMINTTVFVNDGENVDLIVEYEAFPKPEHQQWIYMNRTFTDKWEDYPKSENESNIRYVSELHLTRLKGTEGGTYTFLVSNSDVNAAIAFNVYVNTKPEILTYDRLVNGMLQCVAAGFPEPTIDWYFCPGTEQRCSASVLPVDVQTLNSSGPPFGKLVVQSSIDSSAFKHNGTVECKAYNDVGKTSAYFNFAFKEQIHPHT

| Binder | binding result [1] | EC50 (read off the curve) [2] [nM] | EC50 [3] [nM] | Kd [4] [nM] | koff [4] [s⁻¹] | kon [4] [M⁻¹ s⁻¹] |
| --- | --- | --- | --- | --- | --- | --- |
| PR001310 anti-HELxCD3 control Bispecific T cell engager (bispecific antibody, Control engager; HEL = hen egg lysozyme; Same CD3 arm as PR004384; also called control anti-HELxCD3 Bispecific T cell engager) DIVLTQSPAIMSASPGEKVTMTCSASSSVNYMYWYQQKSGTSPKRWIYDTSKLASGVPVRFSGSGSGTSYSLTISSMETEDAAEYYCQQWGRNPTFGGGTKLEIKRTVAAPSVFIFPPSDEQLKSGTASVVCLLNNFYPREAKVQWKVDNALQSGNSQESVTEQDSKDSTYSLSSTLTLSKADYEKHKVYACEVTHQGLSSPVTKSFNRGECEVQLVESGGGLVQPGGSLKLSCAASGFTFNTYAMNWVRQASGKGLEWVGRIRSKYNNYATYYADSVKDRFTISRDDSKSTLYLQMNSLKTEDTAVYYCVRHGNFGNSYVSWFAYWGQGTLVTVSSASTKGPSVFPLAPSSKSTSGGTAALGCLVKDYFPEPVTVSWNSGALTSGVHTFPAVLQSSGLYSLSSVVTVPSSSLGTQTYICNVNHKPSNTKVDKKVEPKSC heavy: EVQLQQSGAELMKPGASVKISCKASGYTFSDYWIEWVKQRPGHGLEWIGEILPGSGSTNYHERFKGKATFTADTSSSTAYMQLNSLTSEDSGVYYCLHGNYDFDGWGQGTTLTVSSASTKGPSVFPLAPSSKSTSGGTAALGCLVKDYFPEPVTVSWNSGALTSGVHTFPAVLQSSGLYSLSSVVTVPSSSLGTQTYICNVNHKPSNTKVDKKVEPKSC light: QAVVTQEPSLTVSPGGTVTLTCRSSTGAVTTSNYANWVQQKPGQAPRGLIGGTNKRAPWTPARFSGSLLGDKAALTLLGAQPEDEAEYFCALWYSNLWVFGGGTKLTVLGQPKAAPSVTLFPPSSEELQANKATLVCLISDFYPGAVTVAWKADSSPVKAGVETTTPSKQSNNKYAASSYLSLTPEQWKSHRSYSCQVTHEGSTVEKTVAPTECS | no binding |  |  |  |  |  |
| recombinant monoclonal antibody PR004382 (antibody, human IgG1, kappa, compared with a human IgG1 isotype control; also called PR004382 anti-CD117 antibody; copies: 2 + 2) heavy: not shown light: DIVMTQSPDSLAVSLGERATINCRASESVDIYGNSFMHWYQQKPGQPPKLLIYLASNLESGVPDRFSGSGSGTDFTLTISSLQAEDVAVYYCQQNNEDPYTFGGGTKVEIKRTVAAPSVFIFPPSDEQLKSGTASVVCLLNNFYPREAKVQWKVDNALQSGNSQESVTEQDSKDSTYSLSSTLTLSKADYEKHKVYACEVTHQGLSSPVTKSFNRGEC |  | ~0.1 | 0.0155 | 27.2 | 0.00933 | 343000 |

— patent US20260217820A1 (ERASMUS UNIVERSITY MEDICAL CENTER ROTTERDAM, published 2026)
